Results as given in patent US20130337438A1 (JAPAN HEALTH SCIENCES FOUNDATION, published 2013).

Legend:
[1] = target: T1, P56/75 (amino acids 56-75 of HPV16 L2 protein) (human papillomavirus type 16, conjugated with keyhole limpet hemocyanin (KLH) via cysteine); experiment: affinity purification on KLH-P56/75 sepharose
T1 construct: Synthetic peptide; It was conjugated with KLH via an added cysteine (KLH-P56/75); also called KLH-P56/75; L2 peptide (56-75)
T1 peptide: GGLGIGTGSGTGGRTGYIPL

HPV16 L1/L2-capsid = target: T2, HPV16 L1/L2-capsid (human papillomavirus type 16, UniProt P03107 1-473; P03101 1-505); experiment: hybridoma screening ELISA on HPV16 L1/L2-capsid
T2 construct: Capsid of co-expressed L1 and L2; It was made in 293FT cells (Test Method 2) or in Sf9 insect cells with baculovirus (Test Method 3); The pseudovirus of Test Method 1 is the same capsid carrying a SEAP plasmid; also called L1/L2-capsid of type 16; HPV16 pseudovirus (PsV)
T2 sequence 1: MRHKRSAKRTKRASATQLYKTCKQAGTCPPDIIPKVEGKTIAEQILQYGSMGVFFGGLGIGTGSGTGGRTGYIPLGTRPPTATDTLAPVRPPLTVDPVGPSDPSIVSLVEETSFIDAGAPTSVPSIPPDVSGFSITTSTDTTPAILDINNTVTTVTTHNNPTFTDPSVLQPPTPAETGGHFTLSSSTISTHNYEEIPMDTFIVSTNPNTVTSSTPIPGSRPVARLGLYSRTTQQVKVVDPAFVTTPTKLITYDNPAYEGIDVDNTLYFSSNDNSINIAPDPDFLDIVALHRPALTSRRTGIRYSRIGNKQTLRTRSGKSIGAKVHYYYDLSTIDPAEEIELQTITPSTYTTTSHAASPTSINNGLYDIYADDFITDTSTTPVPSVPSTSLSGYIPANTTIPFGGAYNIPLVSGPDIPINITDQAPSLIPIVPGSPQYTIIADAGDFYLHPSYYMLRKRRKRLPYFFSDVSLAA
T2 sequence 2: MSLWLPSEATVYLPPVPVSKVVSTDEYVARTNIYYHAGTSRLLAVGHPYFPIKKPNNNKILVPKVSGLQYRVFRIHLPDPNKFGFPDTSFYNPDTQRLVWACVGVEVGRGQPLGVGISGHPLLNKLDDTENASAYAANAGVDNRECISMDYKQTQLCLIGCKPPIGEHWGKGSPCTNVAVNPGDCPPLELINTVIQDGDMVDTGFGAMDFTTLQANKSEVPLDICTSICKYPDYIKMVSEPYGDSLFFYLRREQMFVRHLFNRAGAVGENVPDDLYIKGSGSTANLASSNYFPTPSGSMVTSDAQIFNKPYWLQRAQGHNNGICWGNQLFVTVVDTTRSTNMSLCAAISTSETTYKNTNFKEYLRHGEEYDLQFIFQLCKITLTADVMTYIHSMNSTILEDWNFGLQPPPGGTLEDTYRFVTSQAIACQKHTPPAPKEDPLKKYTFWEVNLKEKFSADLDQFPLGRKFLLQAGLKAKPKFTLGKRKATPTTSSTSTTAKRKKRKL

HPV31 L1/L2-capsid = target: T3, HPV31 L1/L2-capsid (human papillomavirus type 31, UniProt P17389 1-466; P17388 1-504); experiment: ELISA on immobilized L1/L2-capsid, purified antibody 250 ng/well
T3 construct: Capsid of co-expressed L1 and L2 from 293FT cells; The pseudovirus is the same capsid with a reporter plasmid; also called L1/L2-capsid of type 31; HPV31 pseudovirus
T3 sequence 1: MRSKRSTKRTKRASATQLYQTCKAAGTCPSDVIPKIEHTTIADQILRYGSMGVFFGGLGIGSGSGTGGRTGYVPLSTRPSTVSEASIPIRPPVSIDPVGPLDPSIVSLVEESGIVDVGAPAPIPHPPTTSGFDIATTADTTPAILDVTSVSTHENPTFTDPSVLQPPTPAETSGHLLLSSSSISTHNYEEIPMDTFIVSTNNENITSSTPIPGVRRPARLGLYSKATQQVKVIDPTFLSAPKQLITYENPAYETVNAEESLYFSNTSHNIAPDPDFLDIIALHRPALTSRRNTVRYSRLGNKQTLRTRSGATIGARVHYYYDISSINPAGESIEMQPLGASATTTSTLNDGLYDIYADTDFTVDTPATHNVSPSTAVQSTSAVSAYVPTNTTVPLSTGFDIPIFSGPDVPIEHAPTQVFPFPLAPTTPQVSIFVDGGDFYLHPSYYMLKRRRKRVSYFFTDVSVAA
T3 sequence 2: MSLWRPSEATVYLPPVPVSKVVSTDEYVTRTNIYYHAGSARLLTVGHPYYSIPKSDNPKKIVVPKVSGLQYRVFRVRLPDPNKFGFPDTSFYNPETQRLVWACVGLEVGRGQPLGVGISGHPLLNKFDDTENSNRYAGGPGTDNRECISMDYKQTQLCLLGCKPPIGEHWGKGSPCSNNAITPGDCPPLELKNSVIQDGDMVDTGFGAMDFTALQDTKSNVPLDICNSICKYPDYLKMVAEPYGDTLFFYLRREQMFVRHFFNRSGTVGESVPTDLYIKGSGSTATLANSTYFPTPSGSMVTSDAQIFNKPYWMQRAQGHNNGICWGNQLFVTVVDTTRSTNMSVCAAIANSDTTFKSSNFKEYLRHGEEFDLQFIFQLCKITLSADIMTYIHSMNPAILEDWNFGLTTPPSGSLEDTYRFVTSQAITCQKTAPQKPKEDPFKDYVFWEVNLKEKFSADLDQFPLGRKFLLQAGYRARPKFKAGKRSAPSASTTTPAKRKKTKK

Measured: binding result

B1: monoclonal antibody 13B (antibody, V domains shown)
VH: DVQLQESGPGLVKPSQSLSLSCTVTGYSITSDSAWNWIRQFPGNKLEWMGYITFSGSTNYNPSLKSRLSITRDTSKNQFFLQLNSVTTEDTATYYCTGPFLDYWGQGTTLTVSS
VL: DVVMTQTPLSLPVSLGDQATISCRSSLSLVLSNRITYLQWYLQKPGQSPKLLIYKVSNRFSGVPDRFSGSGSGTDFTLKISRVEAEDLGVYFCSQSSHFPWTFGGGTKLEIKR
notes: Used as mouse ascites or as antibody purified from ascites; also called Mouse-Mouse hybridoma 13B (FERM BP-11304)
binds: all assays above

B2: monoclonal antibody 24B (antibody, V domains shown)
VH: EVQLQQSGTVLARPGASVKMSCKASVYSFPSNWMHWVKQRPGQGLEWIGAIYPGTGATRYNQKFKDKAKLTAVTSADTAYMELSSLTDEDSAVYYCTGYSLYWGQGTILTVSS
VL: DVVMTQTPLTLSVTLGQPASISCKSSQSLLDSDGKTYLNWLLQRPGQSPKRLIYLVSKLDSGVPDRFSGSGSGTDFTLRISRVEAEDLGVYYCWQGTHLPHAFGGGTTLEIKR
notes: Used as mouse ascites or as antibody purified from ascites; also called Mouse-Mouse hybridoma 24B (FERM BP-11305)
binds: all assays above
